Where two headings read alike, the source gives them in different places.
What was measured:
Assay in all cases: Kinase selectivity panel
Type in all cases: biochemical
CHK1 = molecular target: T1, CHK1 (Homo sapiens, UniProt O14757); details: read-out: residual activity (%) CHK1
T1 sequence (O14757 1-476): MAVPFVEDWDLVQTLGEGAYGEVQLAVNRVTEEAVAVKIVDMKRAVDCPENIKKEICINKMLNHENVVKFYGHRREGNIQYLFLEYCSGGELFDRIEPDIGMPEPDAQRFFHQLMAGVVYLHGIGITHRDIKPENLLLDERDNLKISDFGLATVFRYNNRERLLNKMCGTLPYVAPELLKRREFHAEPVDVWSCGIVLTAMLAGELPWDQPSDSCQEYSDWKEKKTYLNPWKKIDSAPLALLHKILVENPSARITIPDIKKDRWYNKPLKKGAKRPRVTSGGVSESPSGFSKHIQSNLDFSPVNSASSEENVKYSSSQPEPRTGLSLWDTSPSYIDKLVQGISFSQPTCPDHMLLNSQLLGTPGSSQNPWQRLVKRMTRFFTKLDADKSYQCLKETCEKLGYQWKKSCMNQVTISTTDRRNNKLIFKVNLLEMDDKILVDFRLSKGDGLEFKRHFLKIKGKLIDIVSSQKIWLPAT
Procedure, shortened: (§1)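 Selectivity profiling spans 52 kinases in total; each assay proceeds at 30° C.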

MAPKAP-K1b/rsk-2 = MAPKAP-K1b/rsk-2 (Homo sapiens, UniProt P51812); details: ATP 50 μM
MAPKAP-K1b/rsk-2, sequence (P51812 whole entry): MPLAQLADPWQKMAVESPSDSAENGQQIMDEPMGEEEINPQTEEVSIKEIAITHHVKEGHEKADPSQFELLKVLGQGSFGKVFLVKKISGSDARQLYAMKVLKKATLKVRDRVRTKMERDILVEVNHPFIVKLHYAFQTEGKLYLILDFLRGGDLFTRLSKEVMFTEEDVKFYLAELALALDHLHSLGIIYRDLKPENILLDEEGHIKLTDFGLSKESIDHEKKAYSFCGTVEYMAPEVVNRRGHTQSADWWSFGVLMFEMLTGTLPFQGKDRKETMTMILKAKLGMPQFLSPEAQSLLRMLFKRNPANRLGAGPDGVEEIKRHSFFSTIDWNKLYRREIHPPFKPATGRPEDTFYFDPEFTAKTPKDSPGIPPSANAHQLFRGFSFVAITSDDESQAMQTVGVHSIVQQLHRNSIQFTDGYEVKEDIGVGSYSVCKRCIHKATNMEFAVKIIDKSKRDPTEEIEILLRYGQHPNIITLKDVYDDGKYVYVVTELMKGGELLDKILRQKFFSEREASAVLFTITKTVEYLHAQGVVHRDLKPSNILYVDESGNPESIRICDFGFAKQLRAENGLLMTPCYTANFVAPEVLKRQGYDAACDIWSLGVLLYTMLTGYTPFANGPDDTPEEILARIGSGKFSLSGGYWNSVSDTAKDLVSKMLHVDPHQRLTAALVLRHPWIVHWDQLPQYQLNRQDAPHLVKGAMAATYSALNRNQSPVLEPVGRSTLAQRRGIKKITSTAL
Procedure, shortened: as §1

MNK2 = MNK2 (Homo sapiens, UniProt Q9HBH9); details: read-out: residual activity (%) MNK2
MNK2, sequence (Q9HBH9 whole entry, species assumed): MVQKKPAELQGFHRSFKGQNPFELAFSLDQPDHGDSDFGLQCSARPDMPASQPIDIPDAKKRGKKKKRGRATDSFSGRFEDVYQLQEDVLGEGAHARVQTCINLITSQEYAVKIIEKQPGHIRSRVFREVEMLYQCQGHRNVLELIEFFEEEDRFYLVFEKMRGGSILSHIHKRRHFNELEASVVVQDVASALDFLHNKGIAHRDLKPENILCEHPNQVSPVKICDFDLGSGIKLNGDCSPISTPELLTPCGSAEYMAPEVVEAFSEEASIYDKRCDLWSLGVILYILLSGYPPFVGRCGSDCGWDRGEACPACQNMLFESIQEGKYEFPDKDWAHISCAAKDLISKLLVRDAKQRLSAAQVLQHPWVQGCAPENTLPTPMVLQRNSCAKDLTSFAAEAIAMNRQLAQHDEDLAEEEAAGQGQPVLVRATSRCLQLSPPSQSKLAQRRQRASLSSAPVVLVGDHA
Procedure, shortened: as §1

MST2 = molecular target: T2, MST2 (Homo sapiens, UniProt Q13188); details: read-out: residual activity (%) MST2
T2 sequence (Q13188 1-491): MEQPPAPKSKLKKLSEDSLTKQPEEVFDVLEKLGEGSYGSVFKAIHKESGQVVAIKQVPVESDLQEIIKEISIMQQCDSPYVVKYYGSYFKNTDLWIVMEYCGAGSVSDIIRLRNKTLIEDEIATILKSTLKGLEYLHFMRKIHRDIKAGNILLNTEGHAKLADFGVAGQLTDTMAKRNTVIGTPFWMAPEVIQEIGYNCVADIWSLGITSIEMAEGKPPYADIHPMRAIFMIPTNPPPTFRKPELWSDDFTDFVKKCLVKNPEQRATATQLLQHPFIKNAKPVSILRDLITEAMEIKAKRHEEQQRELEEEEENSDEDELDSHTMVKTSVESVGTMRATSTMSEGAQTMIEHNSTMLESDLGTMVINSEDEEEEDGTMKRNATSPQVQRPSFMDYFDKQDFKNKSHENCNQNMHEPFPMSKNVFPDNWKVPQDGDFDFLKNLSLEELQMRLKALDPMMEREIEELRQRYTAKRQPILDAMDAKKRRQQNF
Procedure, shortened: as §1

PDK1 = molecular target: T3, PDK1 (Homo sapiens, UniProt O15530); details: read-out: residual activity (%) PDK1
T3 sequence (O15530 1-556): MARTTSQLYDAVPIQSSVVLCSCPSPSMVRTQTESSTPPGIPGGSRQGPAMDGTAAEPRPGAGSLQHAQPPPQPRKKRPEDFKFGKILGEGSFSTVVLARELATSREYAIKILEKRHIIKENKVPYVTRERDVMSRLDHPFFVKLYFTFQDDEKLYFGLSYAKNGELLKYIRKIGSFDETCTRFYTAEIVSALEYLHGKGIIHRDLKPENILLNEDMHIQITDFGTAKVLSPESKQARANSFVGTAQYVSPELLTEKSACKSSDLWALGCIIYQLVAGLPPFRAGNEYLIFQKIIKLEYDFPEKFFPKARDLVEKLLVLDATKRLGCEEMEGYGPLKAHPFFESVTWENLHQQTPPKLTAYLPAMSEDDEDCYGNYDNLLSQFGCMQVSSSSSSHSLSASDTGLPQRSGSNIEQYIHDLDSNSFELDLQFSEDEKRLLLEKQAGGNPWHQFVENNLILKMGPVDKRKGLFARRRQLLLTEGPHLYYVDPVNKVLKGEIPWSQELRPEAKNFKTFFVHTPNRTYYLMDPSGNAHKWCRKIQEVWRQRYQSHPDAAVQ
Procedure, shortened: as §1

PKBb = PKBb (Homo sapiens, UniProt P31751); details: read-out: residual activity (%) PKBb
PKBb, sequence (P31751 whole entry): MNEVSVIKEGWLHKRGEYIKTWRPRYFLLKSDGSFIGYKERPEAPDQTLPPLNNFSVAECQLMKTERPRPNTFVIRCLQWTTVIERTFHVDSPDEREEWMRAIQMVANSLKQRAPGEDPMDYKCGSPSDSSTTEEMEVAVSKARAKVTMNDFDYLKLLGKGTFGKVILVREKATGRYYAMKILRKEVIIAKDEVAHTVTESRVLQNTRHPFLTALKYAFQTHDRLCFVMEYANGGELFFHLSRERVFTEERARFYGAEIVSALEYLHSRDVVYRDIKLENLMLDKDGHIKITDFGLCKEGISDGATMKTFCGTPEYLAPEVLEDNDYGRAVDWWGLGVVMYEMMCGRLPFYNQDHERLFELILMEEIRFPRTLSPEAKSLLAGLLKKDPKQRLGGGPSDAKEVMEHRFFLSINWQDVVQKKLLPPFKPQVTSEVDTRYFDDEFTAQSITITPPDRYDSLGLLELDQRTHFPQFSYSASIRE
Procedure, shortened: as §1

PKD1 = molecular target: T4, PKD1 (Homo sapiens, UniProt Q15139); details: for remaining activity at 1 µM: read-out: residual activity (%) PKD1
T4 sequence (Q15139 1-912): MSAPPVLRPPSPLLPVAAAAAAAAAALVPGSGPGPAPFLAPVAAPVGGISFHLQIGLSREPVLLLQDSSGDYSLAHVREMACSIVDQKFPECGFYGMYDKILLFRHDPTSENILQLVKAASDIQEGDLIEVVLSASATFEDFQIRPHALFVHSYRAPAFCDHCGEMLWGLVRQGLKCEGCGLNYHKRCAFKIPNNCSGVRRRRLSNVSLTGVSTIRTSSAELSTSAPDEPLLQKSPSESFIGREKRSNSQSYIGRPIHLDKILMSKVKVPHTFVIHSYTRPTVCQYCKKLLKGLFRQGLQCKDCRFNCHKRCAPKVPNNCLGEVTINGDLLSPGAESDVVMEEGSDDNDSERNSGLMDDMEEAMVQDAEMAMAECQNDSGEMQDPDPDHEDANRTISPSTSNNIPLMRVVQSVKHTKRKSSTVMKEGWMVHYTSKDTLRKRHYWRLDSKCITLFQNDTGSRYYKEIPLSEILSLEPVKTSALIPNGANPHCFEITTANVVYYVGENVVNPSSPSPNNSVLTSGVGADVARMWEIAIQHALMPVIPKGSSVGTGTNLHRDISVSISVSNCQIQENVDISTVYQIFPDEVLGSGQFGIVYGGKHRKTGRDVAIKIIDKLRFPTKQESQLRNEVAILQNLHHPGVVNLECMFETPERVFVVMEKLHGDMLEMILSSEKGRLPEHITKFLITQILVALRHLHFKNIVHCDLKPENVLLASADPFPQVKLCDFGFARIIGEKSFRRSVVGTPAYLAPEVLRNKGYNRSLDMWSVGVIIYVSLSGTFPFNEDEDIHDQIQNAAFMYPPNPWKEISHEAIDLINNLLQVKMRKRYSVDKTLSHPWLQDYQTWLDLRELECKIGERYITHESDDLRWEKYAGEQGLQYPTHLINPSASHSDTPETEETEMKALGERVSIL
Procedure, shortened: as §1

Compound | remaining activity at 1 µM (CHK1; inhibitor 1 μM, ATP 20 μM) | remaining activity at 1 µM (MAPKAP-K1b/rsk-2; inhibitor 1 μM, read-out: residual activity (%) MAPKAP-K1b/rsk-2) | remaining activity at 1 µM (MNK2; inhibitor 1 μM, ATP 50 μM) | remaining activity at 1 µM (MST2; inhibitor 1 μM, ATP 20 μM) | remaining activity at 1 µM (PDK1; inhibitor 1 μM, ATP 20 μM) | remaining activity at 1 µM (PKBb; inhibitor 1 μM, ATP 50 μM) | residual activity (%) PKD1 (PKD1; inhibitor 1 μM, ATP 50 μM) | remaining activity at 1 µM (PKD1; inhibitor 1 μM, ATP 50 μM) | remaining activity at 1 µM (CHK1) | residual activity (%) MAPKAP-K1b/rsk-2 (MAPKAP-K1b/rsk-2; inhibitor 1 μM) | remaining activity at 1 µM (MAPKAP-K1b/rsk-2; read-out: residual activity (%) MAPKAP-K1b/rsk-2, inhibitor 1 μM) | remaining activity at 1 µM (MNK2) | remaining activity at 1 µM (MST2) | remaining activity at 1 µM (PDK1) | remaining activity at 1 µM (PKBb) | remaining activity at 1 µM (PKD1)
N=C(N)NCCC[C@@H](NC(=O)[C@@H](CCCNC(=N)N)NC(=O)[C@@H](CCCNC(=N)N)NC(=O)[C@@H](CCCNC(=N)N)NC(=O)[C@@H](CCCNC(=N)N)NC(=O)[C@@H](CCCNC(=N)N)NC(=O)CCCCCNCCNS(=O)(=O)c1cccc2cnccc12)C(N)=O [Compound 26, H9-Hex(D-Arg)6-NH2] | 31% | 2% | 31% | 24% | 56% | 3% | 9 (±1) % | < 10% |  |  |  |  |  |  |  | 
N=C(N)NCCC[C@@H](NC(=O)[C@@H](CCCNC(=N)N)NC(=O)[C@@H](CCCNC(=N)N)NC(=O)[C@@H](CCCNC(=N)N)NC(=O)[C@@H](CCCNC(=N)N)NC(=O)[C@@H](CCCNC(=N)N)NC(=O)CCCCCNC(=O)[C@H]1O[C@@H](n2cnc3c(N)ncnc32)[C@H](O)[C@@H]1O)C(N)=O [Compound 5, AdcAhx(D-Arg)6-NH2] |  |  |  |  |  |  |  |  | 16% | 12 (±0) % | 7 to 28% | 99% | 77% | 62% | 3% | 54%

Source: US8158376B2, “Bisubstrate fluorescent probe binding to protein kinases” (University of Tartu, priority 2006, dated 2012)
